Experiment in all cases: steady-state kinetics, HPLC-MS of glycoside product
Holding throughout (format): biochemical, Solanum lycopersicum

Substrate in series [1]: O=c1ccn([C@@H]2O[C@H](COP(=O)(O)OP(=O)(O)O[C@H]3OC[C@H](O)[C@H](O)[C@H]3O)[C@@H](O)[C@H]2O)c(=O)[nH]1
Particulars: HexGlc fixed as acceptor, 50 mM potassium phosphate pH 7.5, 30 °C. The source says:
(§1) steady-state kinetics, HPLC-MS of glycoside product on UGT91R1

Substrate in series [2]: O=c1ccn([C@@H]2O[C@H](COP(=O)(O)OP(=O)(O)O[C@H]3OC[C@@H](O)[C@H](O)[C@H]3O)[C@@H](O)[C@H]2O)c(=O)[nH]1
Particulars: HexGlc fixed as acceptor, 50 mM potassium phosphate pH 7.5, 30 °C.
Text: as §1

Substrate in series [3]: CC/C=C\CCO[C@@H]1O[C@H](CO)[C@@H](O)[C@H](O)[C@H]1O
Particulars: UDP-arabinose fixed as donor, 50 mM potassium phosphate pH 7.5, 30 °C.
Text: as §1

B1: UGT91R1 (Solanum lycopersicum) (protein)
chain: MAENGKKLHIAVFPWLAFGHMIPYLELSKLIAQKGHKISFISTPRNIDRLPKLPPNLTPFLNFVKLPMPHVEKLPENAEATIDLPYEQVKYLKLAQDALQESMSKFIEDSDIDFILFDFTSYWVPSIASKFNIPSGYFSIFIAAFLGFTGPVPGLNNDYEIRMTPEEYTVTPKWVPFETTVAFKLFEVSRIFEASMKGEEENIADIVRYYRSVENCDFLLVRSCSEFEPEWLKVVGDIHRKPVFPVGQLPTTPYEDDSTKIDAWREIKLWLDKQEKGKVIYVAFGSEAKPSQNELTELSLGLELSGLPFFWVLRIKRGESDDELIQLPEGFEERTKGRGIVCTSWAPQLKILSHDSVGGFLTHSGWSSVVEAIQFEKSLVLLTFLADQGINARLLEEKKMAYSIPRNDQDGSFTRDSVAESLNLVLVKEEGFIYREKIKEMKDLFCDKKRQNNYVENLLSFLQDYEKIKA
notes: full length, synthetic cDNA in pET15b, E. coli BL21(DE3), HisTrap purified
B1: in series [1], the Km (usually the substrate concentration at which the rate is half of its maximum) was found to be 38 ± 4 µM; the kcat – broadly, the number of substrate molecules converted per active site and unit of time at saturation – was found to be 1.9 ± 0.1 s⁻¹; the kcat/Km (in general, the turnover number divided by the Michaelis constant) turned out to be 51000 ± 5000 M⁻¹ s⁻¹. For the same protein, in series [2], the Km came out at 603 ± 75 µM, the kcat worked out at 1.8 ± 0.1 s⁻¹ and the kcat/Km stood at 3000 ± 400 M⁻¹ s⁻¹. In series [3], the Km was 5.9 ± 0.5 µM, the kcat stood at 0.33 ± 0.009 s⁻¹ and the kcat/Km is 57000 ± 5000 M⁻¹ s⁻¹.

The record behind these values is PMC9908901, “Identification of a tomato UDP-arabinosyltransferase for airborne volatile reception” (Nature Communications, 2023).
